Results taken from patent KR20210097819A (dated 2021).

Target: T1, human TNFα N-his trimer (human, UniProt P01375 77-233)
T1 construct: Captured on an NTA sensor chip through the N-terminal His tag for Biacore; also called His-tagged TNF (made by ESBATech); not shown: N-terminal His tag
Test: SPR (BIAcore T100), His-tagged TNFα captured on an NTA chip, scFv as analyte

T1 sequence (P01375 77-233 limits assumed): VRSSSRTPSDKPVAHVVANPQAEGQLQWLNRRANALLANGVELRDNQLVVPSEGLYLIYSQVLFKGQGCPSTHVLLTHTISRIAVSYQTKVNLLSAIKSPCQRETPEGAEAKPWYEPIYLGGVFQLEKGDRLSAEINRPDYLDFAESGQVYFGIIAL

Kd: 0.25 nM
B1: EP43max (scFv)
chain: EIVMTQSPSTLSASVGDRVIIKCQASQSISDWLAWYQQKPGKAPKLLIYGASRLASGFPSRFSGSGSGAEFTLTISGLEPADFATYYCQQGWSDSYVDNLFGQGTKLTVLGGGGGSGGGGSGGGGSGGGGSEVQLVESGGGLVQPGGSLRLSCTVSGFSLSSGAMSWVRQAPGKGLEWVGVIISSGATYYASWAKGRFTISKDTSKNTVYLQMNSLRAEDTAVYYCARGGPDDSNSMGTFDPWGQGTLVTVSS
